US20210032312A1 (Janssen / Centocor, published 2021)

Key:
[1] = molecular target: T1, human CD8A on primary human CD8+ T cells (human, UniProt P01732 22-235); experiment: MSD-CAT equilibrium cell binding, primary human CD8 T cells
T1 construct: whole, on cells; also called Human T-cells; CD8 alpha
Experimental: A MesoScale Discovery-Cell Affinity Technology (MSD-CAT) based equilibrium cell-binding assay was performed to determine the affinity of the top six anti-CD8A candidates binding to primary human cytotoxic T cell surface CD8A receptors. Each anti-CD8A FN3 domain at a constant concentration of […] was pre-incubated with 10 different concentrations of primary cytotoxic CD8 T cells (columns 2-11 in a row). Cell viability was checked prior to the binding measurements and a >85% viability was desired for valid analysis. Since these cells were from different donors, in case of donor-to-donor variations, only cells of the same donors were combined together. Each individual anti-CD8A FN3 domain binding was measured in replicates using cells from the same donors. Cells and FN3 domains were incubated overnight at 4° C. on a rotator to reach equilibrium. Following the incubation the cells were spun down along with cell bound anti-CD8A FN3 domains and the unbound (free) anti-CD8A FN3 domains in the supernatants is quantified using MSD assays where biotinylated recombinant hCD8A-Fc protein was captured at 0.6 ug/mL in assay buffer to streptavidin MSD plates overnight ˜16 hours at 4° C. After blocking the plate, supernatant with free anti-CD8A FN3 domains was added to the plate and incubated for 1 hr, then followed by SulfoTag pAb139 (In-house) detection at 1.6 ug/ml. A buffer control without any FN3 domain and hCD8A (plate background binding control) in column 1 and FN3 domain alone control without hCD8A (100% free/unbound) in column 12 were included. Mouse Anti-hCD8A mAb (mIgG1k, BD Biosciences, cat #555364, clone RPA-T8) was included as a positive control. Tencon27 was included in the initial assay validation as a negative control and no significant binding was observed, and therefore, was not included in the later cell binding due to the cell availability. Plates were read immediately on the MSD Sector Imager 6000™ Reader for luminescence levels after adding MSD Read Buffer by diluting 1:4 of stock into H2O.
Raw MSD data were exported and analysed in Prism using a non-linear fit with variable slope function to derive the Bmax and Hillslope values. Only those with converged Bmax values and hillslope within the range of −1.5˜−0.5 (ideal −1.0) will be considered for further analysis.

[2] = molecular target: T1, human CD8A on primary human CD8+ T cells; experiment: flow cytometry on human CD8+ T cells
Experimental: (§1) A full dose response binding curve was generated for the nineteen selected anti-CD8A FN3 domains. Each candidate was diluted to 20 μM in PBS followed by a 1:3 dilution series to generate either an 11-point or an 18-point dose response curve. Human or cyno CD8+ T cells were incubated with the diluted FN3 domain for 1 hour at 4° C. Cells were washed once with PBS and incubated with an anti-centyrin antibody (PAB25) for 1 hour at 4° C. The cells were washed twice with PBS, followed by incubation with a PE-secondary, anti-CD3-PacB, anti-CD4-APC, and a viability dye. Finally, cells were washed and resuspended in PBS for flow cytometric analysis using a BD Canto Instrument. CD8 T cells were defined as live CD3+CD4− cells. Median fluorescence intensity of the bound Centyrins (PE channel) and % of cells showing positive staining calculated using Cytobank software. Results were graphed using Prism and EC₅₀ values were calculated using the 4 parameter dose response variable slope equation.

[3] = molecular target: T2, cynomolgus monkey CD8A on cyno CD8+ T cells (cynomolgus monkey, UniProt P01732 23-235 (human entry)); experiment: flow cytometry on cyno CD8+ T cells
T2 construct: also called cyno T-cells; Cyno CD8alpha
T2 sequence (P01732 other isoform, or with tags, fused parts or gaps limits assumed): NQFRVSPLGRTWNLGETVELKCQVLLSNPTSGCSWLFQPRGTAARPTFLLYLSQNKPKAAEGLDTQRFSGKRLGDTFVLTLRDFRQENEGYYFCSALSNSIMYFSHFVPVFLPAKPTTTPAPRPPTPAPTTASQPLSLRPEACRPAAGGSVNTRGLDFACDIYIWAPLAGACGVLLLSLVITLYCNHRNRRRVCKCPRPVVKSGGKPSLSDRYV
Experimental: as §1

human CD8A on cells = molecular target: T3, human CD8A on cells (human, UniProt P01732 22-235); experiment: MSD-CAT equilibrium cell-binding assay on primary human cytotoxic CD8 T cells
T3 construct: whole, on cells; also called CD8A receptors on primary human cytotoxic T cells
T3 sequence (P01732 22-235): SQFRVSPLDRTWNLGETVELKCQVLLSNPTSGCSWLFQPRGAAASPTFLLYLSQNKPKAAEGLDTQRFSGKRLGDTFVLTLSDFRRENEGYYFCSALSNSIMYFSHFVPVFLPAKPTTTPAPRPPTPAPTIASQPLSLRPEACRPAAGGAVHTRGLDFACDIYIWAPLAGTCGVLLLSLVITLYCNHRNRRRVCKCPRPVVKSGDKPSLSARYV
Experimental: A MesoScale Discovery-Cell Affinity Technology (MSD-CAT) based equilibrium cell-binding assay was performed to determine the affinity of the top six anti-CD8A candidates binding to primary human cytotoxic T cell surface CD8A receptors. Each anti-CD8A FN3 domain at a constant concentration of […] was pre-incubated with 10 different concentrations of primary cytotoxic CD8 T cells (columns 2-11 in a row). Cell viability was checked prior to the binding measurements and a >85% viability was desired for valid analysis. Since these cells were from different donors, in case of donor-to-donor variations, only cells of the same donors were combined together. Each individual anti-CD8A FN3 domain binding was measured in replicates using cells from the same donors. […] Following the incubation the cells were spun down along with cell bound anti-CD8A FN3 domains and the unbound (free) anti-CD8A FN3 domains in the supernatants is quantified using MSD assays where biotinylated recombinant hCD8A-Fc protein was captured at 0.6 ug/mL in assay buffer to streptavidin MSD plates overnight ˜16 hours at 4° C. […] Plates were read immediately on the MSD Sector Imager 6000™ Reader for luminescence levels after adding MSD Read Buffer by diluting 1:4 of stock into H2O.
Raw MSD data were exported and analysed in Prism using a non-linear fit with variable slope function to derive the Bmax and Hillslope values. […]

[4] = molecular target: T4, human CD8A-Fc (recombinant human CD8 alpha fused to Fc fragment of human IgG1) (human, UniProt P01732 22-182, limits assumed); experiment: SPR (ProteOn), captured hCD8A-Fc, heterogeneous ligand fit, lower affinity population
T4 construct: SPR ligand, captured by goat anti-human Fc; also called hCD8A-Fc; recombinant CD8 alpha; not shown: linker with flag (and polyhistidine) tag and Fc fragment of human IgG1; depends on which of the two constructs was used
T4 sequence (P01732 22-182 limits assumed): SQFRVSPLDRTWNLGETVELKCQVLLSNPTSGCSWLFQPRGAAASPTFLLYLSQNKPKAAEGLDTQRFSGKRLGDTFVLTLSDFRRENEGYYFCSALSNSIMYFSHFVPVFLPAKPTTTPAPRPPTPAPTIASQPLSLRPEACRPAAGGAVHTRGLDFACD
Experimental: (§2) Human CD8A-Fc was then captured at five surface densities ranging from 200 to 1200 response units, leaving the 6th channel as empty channel control for GAH-Fc IgG surface. Binding was measured by flowing five different concentrations of anti-CD8A FN3 domains (1 μM diluted in a 3-fold dilution series) as analytes simultaneously in the horizontal orientation over the captured hCD8A-Fc surfaces, with a sixth analyte channel containing only running buffer PBST. All interactions were measured at 100 uL/min flow rate with association and dissociation times being 4, 30 minutes respectively. […] Data analyses were performed using Bio-Rad ProteOn Manager software (version 3.1.0.6). Raw data were double referenced by subtraction of the interspot (empty chip surface, no protein immobilized or captured) signals to correct the non-specific binding of the FN3 domain to the pre-coated GAH-Fc IgG surface, followed by a double referencing using the buffer blank response (to correct for any baseline drift resulting from ligand dissociation over time). […] Given that the GAH-Fc capture of hCD8A-Fc format is the least disruptive relative to other formats in introducing potential experimental artifacts (such as ligand activity loss and/or artificial eptiopes/heterogeneous ligand population due to amine coupling), it is considered that the results from the GAH-Fc capture experiments reported here represent the most reliable ProteOn SPR data, despite the non-conforming 1:1 Langmuir fits observed in many instances. A heterogeneous ligand model was chosen to fit the data assuming two different ligand species, either due to the heterogeneity in the ligand protein population or due to potential different mechanisms for each FN3 domain binding to the 2 hCD8A monomers in the Fc fusion protein.

[5] = molecular target: T4, human CD8A-Fc (recombinant human CD8 …); experiment: SPR (ProteOn), captured hCD8A-Fc, heterogeneous ligand fit, higher affinity population
Experimental: as §2

[6] = molecular target: T4, human CD8A-Fc (recombinant human CD8 …); experiment: SPR (ProteOn), captured hCD8A-Fc, heterogeneous ligand fit, lower affinity population; lower affinity population, heterogeneous ligand fit
Experimental: Human CD8A-Fc was then captured at five surface densities ranging from 200 to 1200 response units, leaving the 6th channel as empty channel control for GAH-Fc IgG surface. Binding was measured by flowing five different concentrations of anti-CD8A FN3 domains (1 μM diluted in a 3-fold dilution series) as analytes simultaneously in the horizontal orientation over the captured hCD8A-Fc surfaces, with a sixth analyte channel containing only running buffer PBST. All interactions were measured at 100 uL/min flow rate with association and dissociation times being 4, 30 minutes respectively. […] Data analyses were performed using Bio-Rad ProteOn Manager software (version 3.1.0.6). Raw data were double referenced by subtraction of the interspot (empty chip surface, no protein immobilized or captured) signals to correct the non-specific binding of the FN3 domain to the pre-coated GAH-Fc IgG surface, followed by a double referencing using the buffer blank response (to correct for any baseline drift resulting from ligand dissociation over time). […]

[7] = molecular target: T4, human CD8A-Fc (recombinant human CD8 …); experiment: SPR, dissociation rate on recombinant CD8 alpha

T1 sequence (P01732 22-235): as the sequence (P01732 22-235) above

Kd [1] [nM] | EC50 [2] [nM] | EC50 [3] [nM] | Binder | also measured
2.81 | 124 | 72.3 | CD8S369 (designed binder, P283AR9P1362_D6 with E54C; the entry holds the mutation) LPAPKNLVVSRVTEDSARLSWAKRPGAFDSFLIQYQESEKVGEAIVLTVPGSCRSYDLTGLKPGTEYTVSIYGVDVKYDIDSRPISSNPLSAIFTT | 
0.869 | 209 | 67.6 | CD8S370 (designed binder, P282DR9P1359_G7 with E54C; the entry holds the mutation) LPAPKNLVVSRVTEDSARLSWTAPDAAFDSFAITYIEKEHIEDGEAIVLTVPGSCRSYDLTGLKPGTEYWVPIWGVKGGANSWPLSAIFTT | 
 |  |  | Tencon27 (designed binder, negative control scaffold; also called Stabilized Tencon) LPAPKNLVVSRVTEDSARLSWTAPDAAFDSFLIQYQESEKVGEAIVLTVPGSERSYDLTGLKPGTEYTVSIYGVKGGHRSNPLSAIFTT | binding result (human CD8A on cells): no binding
 |  |  | P282DR9P1359_F5 (designed binder, FN3 domain (Centyrin); purified as His-tagged protein, tag not in the entry) LPAPKNLVVSRVTEDSARLSWTAPDAAFDSFQIAYPEWPPPGEAIVLTVPGSERSYDLTGLKPGTEYFVIIQGVKGGVESWPLSAIFTT | koff [4]: 6.6e-05 s⁻¹; kon [4]: 34800 M⁻¹ s⁻¹; Kd [5]: 0.04 nM; koff [5]: 1.42e-05 s⁻¹; kon [5]: 380000 M⁻¹ s⁻¹; Kd [6]: 6.6 nM; koff [7]: 5.78e-05 s⁻¹
0.459 | 155 | 70 | CD8S368 (designed binder, P282DR9P1359_F5 with E54C; the entry holds the mutation) LPAPKNLVVSRVTEDSARLSWTAPDAAFDSFQIAYPEWPPPGEAIVLTVPGSCRSYDLTGLKPGTEYFVIIQGVKGGVESWPLSAIFTT | 
